Source: paper PMC10368991, “LolA and LolB from the plant-pathogen Xanthomonas campestris forms a stable heterodimeric complex in the absence of lipoprotein” (Frontiers in Microbiology, 2023)

Biological target: T1, Xanthomonas campestris pv. campestris (Xcc) LolB, periplasmic variant (Xanthomonas campestris pv. campestris …)
T1 chain: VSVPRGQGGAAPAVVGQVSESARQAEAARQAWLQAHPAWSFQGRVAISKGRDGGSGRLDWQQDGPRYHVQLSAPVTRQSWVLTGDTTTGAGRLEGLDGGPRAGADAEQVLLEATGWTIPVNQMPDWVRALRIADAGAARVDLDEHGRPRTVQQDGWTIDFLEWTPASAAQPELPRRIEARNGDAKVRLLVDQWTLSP
Assay: ITC; LolA 1 mM in the syringe, LolB 0.1 (unit inferred) in the cell; 25.0 °C; 20 mM TRIS-HCl pH 7.8, 150 mM NaCl, 5% glycerol; 1:1 binding model; triplicate
Conditions: both partners purified

B1: Xanthomonas campestris pv. campestris (Xcc) LolA (natural protein)
chain: GARQELDTFTRGLKGLDGQFSQRVTDANGRVKENSSGRVALATPRQFRWEYAKPYKQLIVADGKKVWVFDPDLEQVTVRAQGSEEQNSPLVALIDPTRLDKQYDVSEEAAPRDGLQWLSLTPKVDTDASFQMASLGFGKDGLAKMEVVDAVGQRTAISFSGWKRNPAFAADTFRYTPGKGVDVVGDAQ
  Kd: 14.6 ± 1 µM
  dH: -1.63 ± 0.03 kcal/mol
  stoichiometry N: 0.96 ± 0.04
